According to patent US9616120B2, “Monoclonal antibodies directed to CD20” (VET THERAPEUTICS, INC., priority 2010, dated 2017):

T1: recombinant canine CD20 (Canis lupus familiaris, UniProt Q3C2E2, A201T/C77Y/G273E/L198V)
T1 construct: are transfected with an expression vector encoding the full-length canine CD20 protein; expressed in transfected cells; host or cells: CHO cells (CHO-DG44)
T1 sequence (Q3C2E2 1-297 C77Y/L198V/A201T/G273E): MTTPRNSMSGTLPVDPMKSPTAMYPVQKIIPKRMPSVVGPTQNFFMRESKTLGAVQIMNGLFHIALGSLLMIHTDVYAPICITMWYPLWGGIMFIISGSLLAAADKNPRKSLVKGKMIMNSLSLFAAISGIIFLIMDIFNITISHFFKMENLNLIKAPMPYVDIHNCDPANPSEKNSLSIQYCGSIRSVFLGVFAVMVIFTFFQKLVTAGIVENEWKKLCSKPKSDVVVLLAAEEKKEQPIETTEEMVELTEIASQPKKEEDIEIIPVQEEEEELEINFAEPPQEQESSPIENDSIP

T2: recombinant canine CD20 expressed in HEK cells (Canis lupus familiaris, UniProt Q3C2E2, A201T/C77Y/G273E/L198V)
T2 construct: expressed in transfected cells; host or cells: HEK cells
T2 sequence (Q3C2E2 1-297 C77Y/L198V/A201T/G273E): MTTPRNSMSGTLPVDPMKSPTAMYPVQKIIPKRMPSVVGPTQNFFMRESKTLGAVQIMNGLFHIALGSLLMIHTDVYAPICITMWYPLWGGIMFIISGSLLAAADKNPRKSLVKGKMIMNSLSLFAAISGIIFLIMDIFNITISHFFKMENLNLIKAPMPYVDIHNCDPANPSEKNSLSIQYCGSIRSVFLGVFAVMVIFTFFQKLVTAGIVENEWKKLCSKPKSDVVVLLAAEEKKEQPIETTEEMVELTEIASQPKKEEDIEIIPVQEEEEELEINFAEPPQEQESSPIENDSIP


Assays:
[1] = test system: lymphoma cells; assay: MTT proliferation assay on lymphoma cells; format: cell-based; details: 72 h; for percentage of reduction of cell proliferation, Doxorubicin 6.6 nM: Mab 10 ug/mL plus Doxorubicin 6.6 nM; for percentage of reduction of cell proliferation, Doxorubicin 66 nM: Mab 10 ug/mL plus Doxorubicin 66 nM; for percentage of reduction of cell proliferation, Doxorubicin 0 nM: Mab 10 ug/mL, triplicate
Experimental: Lymphoma cells are grown in RPMI medium with FBS 10% in 5% carbon dioxide (CO2) at 37° C. Cells are seeded at 5,000 cells/well in 96-well plates in medium with 5% FBS. Cells are treated with the antibody variants or isotype controls (10 μg/ml) and incubated for 72 h at 37° C. in a CO2 incubator. Ten (10) μL, MTT solution is added to each well and incubated at 37° C. for 4 h according to the manufacturer's instruction (Trevigen). Optical density (OD) is then measured at 490 nm and data is presented as percentage of reduction of cell proliferation of triplicate measurements. The data in Table 5 illustrate that the antibody variants have an anti-proliferative effect on lymphoma cells. Furthermore, the antibody variants sensitize the lymphoma cell line to Doxorubicin, a cytotoxic drug commonly used in the treatment of cancer for companion animals.
The antibody variants of the present invention are further tested for their ability to alter proliferation of lymphoma cells. Cell assays are conducted as described in the example above. Data is presented in Table 6 as percentage of reduction of cell proliferation of triplicate measurements.

[2] = target: T1, recombinant canine CD20; assay: Competition experiments (epitope mapping) on CHO cells expressing recombinant canine CD20; format: binding
Experimental: Competition experiments are performed using standard techniques. Briefly, biotinylated recombinant anti-canine CD20 antibodies are titrated on CHO cells expressing recombinant canine CD20. Cells are first incubated with an excess of unlabelled recombinant anti-canine CD20 antibody (25 μg/mL). Thereafter, cells are incubated with a biotin-labeled antibody at 2 μg/mL. After washing, cells are incubated with streptavidin- phycoerythrin and fluorescence is analyzed by flow cytometry. An irrelevant antibody is used as negative control for inhibition. Results are expressed as a ratio between fluorescence intensity of the cells pre-incubated with the unlabelled antibody and the fluorescence intensity obtained for each biotinylated antibody alone. The percentage of inhibition (PI) is calculated by the following formula: PI=[1−(Experimental-Background)/Biotinylated antibody alone−Background)]×100%.

[3] = target: T2, recombinant canine CD20 expressed in HEK cells; assay: FACS binding to cells expressing recombinant canine CD20
Experimental: (§1) The binding of the antibody variants of the present invention raised to canine CD20 can be assessed by FACS analysis for their binding to feline CD20 according to standard immunological techniques (see Veterinary Immunology and Immunopathology 2005, 106:179-196; Brousseau et al., Manual of Immunology Methods, CRC Press, 1998). In the present example, the antibody variants (2.5 μg/mL) are incubated with mammalian cells expressing the recombinant feline CD20 or canine CD20 or control cells. The amount of bound antibody is assessed by detection with a fluorescent-labeled reporter antibody reagent. Several controls are utilized to determine the background fluorescence: (i) CD20 expressing cells are incubated with the conjugated secondary antibody with an isotype antibody, and (ii) Control cells are incubated with the anti-CD20 antibodies.

[4] = test system: Control Cells; assay: FACS binding to control cells; details: antibody 2.5 μg/mL
Experimental: In the present example, the antibody variants (2.5 μg/mL) are incubated with mammalian cells expressing the recombinant feline CD20 or canine CD20 or control cells. The amount of bound antibody is assessed by detection with a fluorescent-labeled reporter antibody reagent. Several controls are utilized to determine the background fluorescence: (i) CD20 expressing cells are incubated with the conjugated secondary antibody with an isotype antibody, and (ii) Control cells are incubated with the anti-CD20 antibodies.

[5] = test system: feline CD20 expressed in mammalian cells; assay: FACS binding to cells expressing recombinant feline CD20; details: antibody 2.5 μg/mL
Sequence of feline CD20 expressed in mammalian cells (as listed by the source): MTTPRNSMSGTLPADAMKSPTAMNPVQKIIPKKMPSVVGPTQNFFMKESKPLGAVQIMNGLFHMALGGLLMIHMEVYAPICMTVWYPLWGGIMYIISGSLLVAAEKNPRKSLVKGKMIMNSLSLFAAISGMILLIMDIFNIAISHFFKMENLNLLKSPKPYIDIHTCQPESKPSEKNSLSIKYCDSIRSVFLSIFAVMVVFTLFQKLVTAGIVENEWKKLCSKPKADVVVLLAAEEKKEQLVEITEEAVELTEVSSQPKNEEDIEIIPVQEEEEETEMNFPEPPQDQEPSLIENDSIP
Experimental: as §1

| epitope of canine CD20 (in words) ([2]; conclusion from Table 7) | percentage of inhibition (PI), labeled antibody CD20-1 ([2]; unlabelled competitor 25 μg/mL, biotin-labeled CD20-1 2 μg/mL) | percentage of inhibition (PI), labeled antibody CD20-2 ([2]; unlabelled competitor 25 μg/mL, biotin-labeled CD20-2 2 μg/mL) | percentage of inhibition (PI), labeled antibody CD20-5 ([2]; unlabelled competitor 25 μg/mL, biotin-labeled CD20-5 2 μg/mL) | binding to recombinant canine CD20 (in words) [3] | mean fluorescence, Canine CD20 ([3]; antibody 2.5 μg/mL) | Molecule | percentage of reduction of cell proliferation, Doxorubicin 6.6 nM [1] | percentage of reduction of cell proliferation, Doxorubicin 66 nM [1] | percentage of reduction of cell proliferation, Doxorubicin 0 nM [1] | mean fluorescence, Control Cells [4] | mean fluorescence, Feline CD20 [5] |
| --- | --- | --- | --- | --- | --- | --- | --- | --- | --- | --- | --- |
| – | – | – | – | – | – | VET 133 X VET 257: antibody variant: light chain VET133 (VET132 CD20-1 LC + VET101) with heavy chain VET257 (VET256 CD20-1 HC + VET201) (antibody) heavy: EIQLQQSGAELVKPGASVKISCKASGYTFTDYYINWVKQRPGQGLEWIGKIGPGSGRTYYNEKFKGKATLTADKSSSTAYIQISSLTSEDSAVYFCAVLSWGQGTTLTVSSASTTAPSVFPLAPSCGSQSGSTVALACLVSGYFPEPVTVSWNSGSLTSGVHTFPSVLQSSGLYSLSSMVTVPSSRWPSETFTCNVAHPASKTKVDKPVPKRENGRVPRPPDCPKCPAPEMLGGPSVFIFPPKPKDTLLIARTPEVTCVVVDLDPEDPEVQISWFVDGKQMQTAKTQPREEQFNGTYRVVSVLPIGHQDWLKGKQFTCKVNNKALPSPIERTISKARGQAHQPSVYVLPPSREELSKNTVSLTCLIKDFFPPDIDVEWQSNGQQEPESKYRTTPPQLDEDGSYFLYSKLSVDKSRWQRGDTFICAVMHEALHNHYTQKSLSHSPGK light: DVQITQTPLTLSVTFGQPASISCKSSQSLLKSDGRTYLNWLLQRPGQSPKRLLYLVSKLDSGVPDRFTGSGSGTDFTLKISRVEAEDLGVYYCWQGTHFPQTFGGGTKLEIKGQPKASPSVTLFPPSSEELGANKATLVCLISDFYPSGVTVAWKADGSPITQGVETTKPSKQSNNKYAASSYLSLTPDKWKSHSSFSCLVTHEGSTVEKKVAPAECS | 65.77% | 76.79% | 59.82% | – | – |
| recognize different epitopes | 6.03% | 1.41% | 5.99% | effective binding | 2107 mean fluorescence units | CD20-6: anti-canine CD20 antibody; full length HC SEQ ID NO. 42, LC SEQ ID NO. 43 (antibody, canis familiaris/mus musculus, anti-canine CD20 antibody; 43) heavy: EIQLQQSGAELVRPGASVTLSCKASGYTFTDYEMHWVKQTPVHGLEWIGGIDPETGGTAYNQKFKGKAILTADKSSSTVYMELRSLTSEDSAVYYCTRDYGTSGYWGQGTLVTVSSASTTAPSVFPLAPSCGSQSGSTVALACLVSGYFPEPVTVSWNSGSLTSGVHTFPSVLQSSGLYSLSSMVTVPSSRWPSETFTCNVAHPASKTKVDKPVPKRENGRVPRPPDCPKCPAPEMLGGPSVFIFPPKPKDTLLIARTPEVTCVVVDLDPEDPEVQISWFVDGKQMQTAKTQPREEQFNGTYRVVSVLPIGHQDWLKGKQFTCKVNNKALPSPIERTISKARGQAHQPSVYVLPPSREELSKNTVSLTCLIKDFFPPDIDVEWQSNGQQEPESKYRTTPPQLDEDGSYFLYSKLSVDKSRWQRGDTFICAVMHEALHNHYTQKSLSHSPGK light: DVVVTQTPLSLPVSFGDQVSISCRSSQSLANSYGNTYLSWYLHKPGQSPQLLIYGISNRFSGVPDRFSGSGSGTDFTLKISRVEAEDLGVYFCSQSTHVPWTFGGGTHLTVLGQPKASPSVTLFPPSSEELGANKATLVCLISDFYPSGVTVAWKADGSPITQGVETTKPSKQSNNKYAASSYLSLTPDKWKSHSSFSCLVTHEGSTVEKKVAPAECS | – | – | – | 4 mean fluorescence units | 60 mean fluorescence units |
| – | – | – | – | – | – | VET 135 X VET 260: antibody variant: light chain VET135 (CD20-2 LC + VET101) with heavy chain VET260 (VET259 CD20-2 HC FR4T + VET201) (antibody) heavy: QVQLQQSRAELVRPGASVTLSCKPSGYTFTDYEVHWVKQTPVHGLEWIGAIDPETGGTADNQKFKGKAILTADKSSSTAYMELRSLTSEDSAVYYCTNFVDVWGTGTTVTVSSASTTAPSVFPLAPSCGSQSGSTVALACLVSGYFPEPVTVSWNSGSLTSGVHTFPSVLQSSGLYSLSSMVTVPSSRWPSETFTCNVAHPASKTKVDKPVPKRENGRVPRPPDCPKCPAPEMLGGPSVFIFPPKPKDTLLIARTPEVTCVVVDLDPEDPEVQISWFVDGKQMQTAKTQPREEQFNGTYRVVSVLPIGHQDWLKGKQFTCKVNNKALPSPIERTISKARGQAHQPSVYVLPPSREELSKNTVSLTCLIKDFFPPDIDVEWQSNGQQEPESKYRTTPPQLDEDGSYFLYSKLSVDKSRWQRGDTFICAVMHEALHNHYTQKSLSHSPGK light: DVVMSQSPSSLAVSVGEKVTMSCKSSQSLLYSGNQKNYLAWYQQKPGQSPRLLIYWASTRESGVPDRFTGSGSGTDFTLTISSVKAEDLAVFYCQQYYNYPLTFGAGTKLELKGQPKASPSVTLFPPSSEELGANKATLVCLISDFYPSGVTVAWKADGSPITQGVETTKPSKQSNNKYAASSYLSLTPDKWKSHSSFSCLVTHEGSTVEKKVAPAECS | 58.63% | 64.88% | 40.48% | – | – |
